In this assay the target is human CD20 (human) (UniProt P11836). Put plainly: dissociation of 125I-labelled F(ab)2 fragments from Ramos-EHRB cells, initial binding set at 100%.
Sequence of human CD20 (human) (P11836 whole entry, the tested form may be a part): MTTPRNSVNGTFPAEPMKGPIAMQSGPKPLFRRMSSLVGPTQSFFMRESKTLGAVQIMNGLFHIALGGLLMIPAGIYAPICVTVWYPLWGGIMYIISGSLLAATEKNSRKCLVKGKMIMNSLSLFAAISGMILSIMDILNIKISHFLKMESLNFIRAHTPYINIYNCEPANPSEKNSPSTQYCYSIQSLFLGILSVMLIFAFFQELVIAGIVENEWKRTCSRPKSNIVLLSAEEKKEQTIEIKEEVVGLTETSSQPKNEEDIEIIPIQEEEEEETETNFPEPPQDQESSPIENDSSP

For the substance F(ab′)2 fragment of rituximab, the percent still bound at 90 min was 50%.

The values are drawn from patent US20040167319A1 (Genmab, published 2004).
